Experimental data taken from the supplement of paper PMC12764529.
± gives the half width of the 95% confidence interval.

Tests used:
[1] = folding stability dG unfold (combined trypsin and chymotrypsin); higher = more stable
In short: (§1)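 Only designs with AlphaFold2 dimer inter-PAE above 15 were retained; each was a mini-protein under 80 residues with no cysteine, in a PA-tagged cDNA display construct. After digestion with trypsin and chymotrypsin and sequencing, K50 was inferred by Bayesian fitting of counts, and unfolding free energy was derived per protease or combined against a sequence-predicted unfolded-state K50 and a shared folded-state K50.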

[2] = folding stability dG unfold from chymotrypsin proteolysis; higher = more stable
In short: as §1

| Sequence | folding stability dG unfold [1] | folding stability dG unfold [2] |
| --- | --- | --- |
| SAGGSAGSVPSIVIESYDPEKGIVTVSYPATGATYTVEVPPGSTSLTVTVTDADGTPRTFTFPLPGSAGGSA [r2_132_JUSTAS] | 5.36 ± 0.12 kcal/mol | 5.31 ± 0.1 kcal/mol |
| SAGGSAHPVQFPNGQEFPIRNPKNGKDFKIRMEQEDGPMRAEIEYPGGGKKRRIDGPMSLEEALKQSAGGSA [r15_234_TrROS] | -0.0891 ± 0.24 kcal/mol | 0.509 ± 0.12 kcal/mol |
| SAGGSAITLEDIRNMPIEEIAKEMQDHFPNGQKQPIEFEYPDGRKLRIKAEYPPNGEPKIDIEPVDSAGGSA [r15_857_TrROS] | < -1 kcal/mol | 0.139 ± 0.14 kcal/mol |
| SAGGSAKLRVAEADFVPGALLEAIEELEKAPAGAEVEVRPGDPLEPKERPVRFVVNEKGELLEVVGSAGGSA [r15_228_TrMRF] | < -1 kcal/mol | -0.619 ± 0.32 kcal/mol |
| SAGGSAKPGEKLKIRMWNPDGETHEFDVKIPPGVRIRMPDNGQEQTFPPGDEIPFPPNMPIQVEKVSAGGSA [r15_152_TrROS] | -0.121 ± 0.29 kcal/mol | 0.309 ± 0.086 kcal/mol |
| SAGGSAKRVAFIGGGPEIEKVIKEAEKNGFEAVPFDGTPDEFLDALKKNFPDVKQIVFPDGKVLDASAGGSA [r15_712_TrMRF] | -0.134 ± 0.13 kcal/mol | 0.192 ± 0.13 kcal/mol |
| SAGGSALTPAVAERLRELFPDGDLGLKAVKPGEVVVFPNGARNFNTEDAERVVVVLPDGEPLVLDVSAGGSA [r2_166_TrMRF] | -0.241 ± 0.23 kcal/mol | 0.117 ± 0.14 kcal/mol |
| SAGGSAMKAKVVDTSLKESKTKDDSIIVTVTVKYPDGSVTPIVYPVSSSGGISEEEVEKAIKELLESAGGSA [r15_233_JUSTAS] | -0.661 ± 0.14 kcal/mol | -0.138 ± 0.057 kcal/mol |
| SAGGSAMKTAEVVLDVPEEELEAARAAGEGLSAEVRARMEALAAEVRAAGYDEVVLRLRPSSVPLPSAGGSA [r15_304_JUSTAS] | < -1 kcal/mol | -0.0294 ± 0.24 kcal/mol |
| SAGGSAMPRSSVSIVSVERAPDGTVTIPTKTTLTTPDGTVTTEESTVTLEVPPGRELSEEEIKKLLSAGGSA [r15_836_JUSTAS] | 0.53 ± 0.11 kcal/mol | 0.983 ± 0.017 kcal/mol |
| SAGGSAMTEEEFETEFSDPNNSLSTKVKTTRYLEGDTPVVKTTYTTEDPNTGSTYTTEKVTVIPKKSAGGSA [r15_960_JUSTAS] | -0.891 ± 0.29 kcal/mol | -0.218 ± 0.18 kcal/mol |
| SAGGSAMVVPVASEEEARAVAEEAAARGEPVVIAFPGGRALVVETAAAPTPEPVLRVEEREVPPLLSAGGSA [r15_761_JUSTAS] | 0.216 ± 0.034 kcal/mol | 0.744 ± 0.0083 kcal/mol |
| SAGGSASTREVGDKTLTVTPIKLPNGTNLVLLRTFDPATGKVPVLAFPPEEGNPLGESVLPASELLSAGGSA [r15_671_JUSTAS] | < -1 kcal/mol | -0.654 ± 0.14 kcal/mol |
| SAGGSASVSVTELSPEERAALEAAGVEVPDDRPRVVETRTVTPAGGAVVTVRVLPEPPLSPEELAASAGGSA [r15_322_JUSTAS] | -0.127 ± 0.066 kcal/mol | 0.311 ± 0.013 kcal/mol |
| SAGGSASVSYDPTPGPTRRTTTLLETEEVGPNLKRVKTKVTLFPSDGVPTTSTVTELDLVPPPELPSAGGSA [r15_1035_JUSTAS] | 0.128 ± 0.11 kcal/mol | 0.527 ± 0.057 kcal/mol |
| SAGGSETLELTIEIPGLGQPVSARSTSFDPEKGLWTAEMKSPVPGLRRTLTYDPVTGTVSSTTTLLSAGGSA [r2_147_JUSTAS] | 0.108 ± 0.13 kcal/mol | 0.341 ± 0.13 kcal/mol |
| SAGGSGDSMLVPVSESTSSYPPSGIVRSTKTILDPKKGGIITETTTTTLTPDGNPLSTTPSTTVKESAGGSA [r2_253_JUSTAS] | -0.244 ± 0.23 kcal/mol | 0.344 ± 0.032 kcal/mol |
| SAGGSGMWTPKQVKLLAEPGKSKTITIPGPVSEEEINALLNAGEPVIITLPDGTVLKAEKNTITLESAGGSA [r2_33_JUSTAS] | -0.371 ± 0.15 kcal/mol | 0.138 ± 0.084 kcal/mol |

| Sequence | folding stability dG unfold [1] | folding stability dG unfold [2] |
| --- | --- | --- |
| SAGGSGSRIVVETITEYEVFETPTGKKKTKVFKTKKIVTETVPMSPADVAAYEAALAEGLGPGALASAGGSA [r2_327_JUSTAS] | -0.234 ± 0.17 kcal/mol | 0.714 ± 0.16 kcal/mol |
| SAGGSIPAEEIADKLRKEPGIPEDDVEVNVERRPGQVTIDVKMDDPDHPQHRRMKKRAQDALQKLLSAGGSA [r2_3_TrROS] | -0.133 ± 0.3 kcal/mol | 0.186 ± 0.31 kcal/mol |
| SAGGSMKDIPAEEIAKLFAAKLGYPILDAKVEKNPVKPVYKLYIVVEEKNPGKKFPREITIPSELLSAGGSA [r2_156_TrMRF] | -0.0499 ± 0.22 kcal/mol | 0.196 ± 0.25 kcal/mol |
| SAGGSMLVTVKFKTLPDGTVDHNPKLLAKVDGPEPDPADPATVRLPVDPAVVAQWPEEVAEEMEILASAGGS [r16_328_JUSTAS] | -0.159 ± 0.074 kcal/mol | 0.155 ± 0.086 kcal/mol |
| SAGGSMPPVVEPATLTLGNGPATQLQRYPGVELVVYRRPPENTILFLSSSGQVLEERKVSPETPVSELSAGG [r13_507_JUSTAS] | < -1 kcal/mol | -0.318 ± 0.31 kcal/mol |
| SAGGSMSTTLPDGGKVTVYSDPNKPLTLVEVELPDRRLVVLRPVSAPEDGTIVAPVEVRPLEEVEEASAGGS [r16_85_JUSTAS] | < -1 kcal/mol | -0.0108 ± 0.18 kcal/mol |
| SAGGSMTVSTAPDGTLKVYDPATGKLNPLPVPPVPLVVSRSVQPDKGVVITTTTTPSGEVTVSTTALSAGGS [r16_453_JUSTAS] | -0.159 ± 0.075 kcal/mol | 0.394 ± 0.06 kcal/mol |
| SAGGSMTVVTVEARPPDSSETTVTPLTETAPDGRPRAISLEEARARLAAEPDRPVTRVTVRPEAAASAGGSA [r2_192_JUSTAS] | 0.0975 ± 0.15 kcal/mol | 0.452 ± 0.057 kcal/mol |
| SAGGSPAPVRRTVTQLLKVGDKLETRVVEEVVWVPEPPPPPVIPIPEDRGLNEEPVPGTRELTFDAGSAGGS [r8_28_JUSTAS] | -0.195 ± 0.37 kcal/mol | 0.268 ± 0.19 kcal/mol |
| SAGGSPWIEVEIPFPPGMPADELADFIAEELDENGHDVKVDDVEQDPEEGYMKFRVRDGKSVEIPWSAGGSA [r2_242_TrROS] | -0.521 ± 0.23 kcal/mol | -0.522 ± 0.28 kcal/mol |
| SAGGSSNVGEVTIEIREPVNPERFVDPEYREKAIEEMKEKAEAKAEEIKKENPNVKVTVNISLLEPGSAGGS [r8_183_JUSTAS] | -0.00749 ± 0.36 kcal/mol | 0.659 ± 0.07 kcal/mol |
| SAGGSSSVTEISISRSRQRPDASGRWVTEPVLPPGVYAPTTVVHENGVLTFNTVYDGKPVTETIPLSSAGGS [r16_500_JUSTAS] | -0.0547 ± 0.12 kcal/mol | 0.47 ± 0.13 kcal/mol |
| SAGGSSVKVVKTEVTEDPATGLTTVTETFENGAKATFTIDPATGTVPGETEYPDKKVKYTGYDPLPPSAGGS [r8_363_JUSTAS] | -0.111 ± 0.31 kcal/mol | 0.588 ± 0.15 kcal/mol |
| SAGGSTVTFSSEEEIAKLKPVLKKGNPTTLYLNEVRERLLPNGEPVLVPRDVTRTITLVNGKLTESETSAGG [r13_835_JUSTAS] | < -1 kcal/mol | -0.685 ± 0.18 kcal/mol |
| SAGGTATVEAALAALPADLPRGSLALHPETGLVEPLEPSPEDAVAYPVNPATGERYPLRVEADAVRLLSAGG [r13_803_JUSTAS] | -0.517 ± 0.15 kcal/mol | 0.461 ± 0.079 kcal/mol |
| SAGGTIKGLPVEEIKDEIRDLFPDHPMKVDIEPIDEDEGYVRVEIEPPRPNGKTQRQEHTIPIRPDDSAGGS [r16_564_TrROS] | -0.64 ± 0.58 kcal/mol | -0.579 ± 0.14 kcal/mol |
| SAGGYPAEIEASNVKPEELKKAIEDAPWAKELDVEVEDSSPDGSVKAKFKANSKAEVKRFEKAVKDAFSAGG [r13_580_TrMRF] | < -1 kcal/mol | -0.448 ± 0.34 kcal/mol |
| SAGKLVVPILLEFPPGATLEEAKEAVEEAVEKLKESFPNAPDIEIKLVDVKVFKTEDDRYLVLALIEVGSAG [r5_985_TrMRF] | 4.55 ± 0.43 kcal/mol | 4.51 ± 0.23 kcal/mol |
